In patent US8227408B2, “Leptin as an anti-amyloidogenic biologic and methods for delaying the onset and reducing Alzheimer's disease-like pathology” (Neurotez, Inc., priority 2005, dated 2012):

How the values were obtained:
[1] = system: Neuro2a cells stably transfected with hyg-sa134 (SEAP-APP); assay: Aβ production by Neuro2a cells stably transfected with hyg-sa134 (total Aβ in media, sandwich ELISA); format: cell-based, mouse
Procedure: Neuro2a (mouse neuroblastoma) stably transfected with hyg-sa134, a pcDNA3.1/Hygro plasmid (Invitrogen, CA) modified to express a fusion protein of secreted alkaline phosphatase (SEAP) and a fragment of APP consisting of the C-terminal 134 amino acids (“CAPP134”) (SEQ ID NO:10) were maintained in culture as described ([…]) in the presence of 400 μg/ml of hygromycin. SEQ ID NO: 11 is the DNA sequence of the entire hygsa134 vector, which was derived from the pcDNA3.1/Hygro vector by genetic manipulation to insert the DNA sequences for SEAP and CAPP134. The SEAP-CAPP cDNA insert from hyg-sa134 was also subcloned into an adenoviral vector using the Adeno Vator system (Qbiogene, Calif.). The DNA sequence for SEAP (corresponding to nucleotides 981-2441 of hyg-sa134) (SEQ ID NO: 9) is located 5′ to the DNA sequence (SEQ ID NO: 12) coding for CAPP134 (SEQ ID NO: 10).
SY5Y and hyg-sa134-Neuro2a cells were treated at 80% confluency (see below). Primary neural cultures from mouse embryos were allowed to grow for 6-12 days following plating and prior to viral infection and treatments.
About 5 μg/ml or about 10 μg/ml water-soluble cholesterol was added to cultures for 2 or 5 hours. Water soluble cholesterol (Sigma-Aldrich, MO) is a solution made of cholesterol balanced with cyclodextrin CDX (40 mg cholesterol per gr CDX). For comparison, cultures were treated with the equivalent amount of the resin alone, which leads to depletion of cholesterol in the cultures (Simons et al., Proc Natl Acad Sci USA. 95:6460-4 (1998)).
About 100 ng/ml or about 400 ng/ml leptin (Harbor-UCLA, CA), was added in cell culture medium for 2 or 5 h. Cells were approximately 80% confluent at the time of treatment. Peptide YY (3-36) (Phoenix Pharmaceuticals, Inc., CA), and CNTF (Sigma-Aldrich, Mo.) were added at about 25 μM or 150 μM for the same incubation periods. TOFA, etomoxir (Research Biochemicals International, MA) and cerulenin (Sigma-Aldrich, Mo.) were used as described below.
For the determination of Aβ peptide several methodologies also were used. SY5Y cells in culture were metabolically labeled with ^35S-[Met] as described (Figueiredo-Pereira et al. J Neurochem. 72:1417-22 (1999)), followed by immunoprecipitation, resolution of the immunoprecipitates on SDS-PAGE, autoradiography, and densitometric analysis of the autoradiogram. Neuro2a cells were stably transfected with hyg-sa134 (K. Sambamurti, S. Carolina Medical Center, SC) and Aβ40 (SEQ ID NO: 4) plus Aβ42 (SEQ ID NO: 5) plus Aβ43 (SEQ ID NO: 6) (Total Aβ) in the medium then was quantified by sandwich ELISAs developed with 4G8 and 6 ε10 monoclonal antibodies (Signet, Mass.) as described (Figueiredo-Pereira et al., J Neurochem. 72:1417-22 (1999)). Commercially available ELISA kits (KMI Diagnostics, MN) were used for the separate determination of Aβ40 (SEQ ID NO:4) and Aβ42/43 (SEQ ID NO:5/SEQ ID NO:6) in formic acid extracts of mice brains. Flotillin was detected using monoclonal anti-flotillin-1 antibodies (BD Biosciences, CA). Actin was detected using monoclonal anti-actin antibodies (Research Diagnostics, Inc, NJ).
Human (SYSY) or mouse neuroblastoma cell-lines (Neuro2a) commonly are used to study amyloid β metabolism in vitro. Neuro2a cells are stably transfected with hyg-sa134 (SEQ ID NO: 11), a plasmid driving the expression of a recombinant fusion protein containing the human C-terminal fragment of APP of about 134 amino acids, CAPP134 (SEQ ID NO: 10). Here, 5Y5Y or Neuro2a cultures were treated for 2 or 5 h with about 100 ng/ml or about 400 ng/ml leptin (FIG. 4a, 4b). Similarly, primary neurons from embryonic rat brain, infected with an adenovirus to direct the expression of CAPP134 (SEQ ID NO:10) also were treated according to the same regimen. […]

astrocytes = assay: Filipin staining of astrocytes; format: cell-based, rat; details: about 5 h
Procedure: Leptin was detected using a rabbit polyclonal antibody raised against mouse leptin, corss-reacting with human leptin (obtained from Dr. A. F. Parlow, Harbor-UCLA, CA). Immunofluorescent confocal microscopy was performed on 2% paraformaldehyde-fixed primary neural cells. Filipin staining was performed as described (Feng et al., Nat Cell Biol. 5:781-92 (2003)).
Neural cultures from ε15 rat cerebral cortex were processed for enrichment of neurons (a-d) or astrocytes (e-h) as described (Takeshima et al., J. Neurosci. Methods 67: 27-41 (1996)). After about 7 days to about 10 days in culture, cultures were treated for about 5 h with about 10 μg/ml cholesterol (b, f) or about 400 ng/ml leptin plus cholesterol (c, g) or leptin alone (d, h). Controls (a, e) were treated with culture media alone. Filipin staining was performed as described (Feng et al., Nat. Cell Biol. 5: 781-92 (2003)). Neurons (i-k) and astrocytes (l-n) prepared as above were treated with 0 μM (i, l), 5 μM (j, m) or 10 μM cholesterol (k, n) for 5 h. Immunostaining was performed for leptin (A.F.Parlow, Harbor-UCLA, CA).

B1: Leptin: peptide hormone controlling adaptive metabolic mechanisms to energy availability; leptin (Harbor-UCLA) in vitro, recombinant murine leptin in mice (protein, UniProt P41160 22-167, looked up)
Leptin: VPIQKVQDDTKTLIKTIVTRINDISHTQSVSAKQRVTGLDFIPGLHPILSLSKMDQTLAVYQQVLTSLPSQNVLQIANDLENLRDLLHLLAFSKSCSLPQTSGLQKPESLDGVLEASLYSTEVVALSRLQGSLQDILQQLDVSPEC
- Aβ production / levels of Aβ in the media (in words) ([1]; 2 or 5 h treatment): dose- and time-dependent decrease
- levels of Aβ detected in the media (percentage of corresponding controls), leptin co-administered with cholesterol ([1]; 5 h, highest concentrations of leptin, co-administered with cholesterol, FIG. 4b): 150±4%
- Neuro2a/SEAP-APP Aβ(% control) ([1]; total Aβ in conditioned media, 5 h, concentration (TOFA 200 μM, cerulenin 200 μM, etomoxir 40 μM, peptide YY (3-36) 25 μM, CNTF 25 μM, leptin 400 ng/ml), mean ± SEM, 4 experiments, NS = non-significant): 56 ± 5 % control
- filipin labelling (astrocytes; about 400 ng/ml leptin): diminished filipin labelling
- increase in filipin labelling by cholesterol (astrocytes; leptin about 400 ng/ml plus cholesterol about 10 μg/ml): prohibited an increase
